Common to all, as to assay: SPR, BiaCore X-100, TRN1007 captured by goat anti-human IgG on CM5 chip, E2-core as analyte
For orientation: Surface plasmon resonance follows binding to a sensor surface in real time, without labels.

Assay [1] deals with HCV包膜糖蛋白 HCV-E2-core 基因型7a (Hepatitis C virus genotype 7a).
Assay [2] has as its target HCV包膜糖蛋白 HCV-E2-core 基因型6a (Hepatitis C virus genotype 6a).
Assay [3] deals with HCV包膜糖蛋白 HCV-E2-core 基因型2a (Hepatitis C virus genotype 2a).
Assay [4] concerns the target HCV包膜糖蛋白 HCV-E2-core 基因型4a (Hepatitis C virus genotype 4a).

The results in this text go back to patent CN107286237A.

B1: 全人源抗HCV单克隆中和抗体TRN1007 (antibody, V domains shown)
VH: EVQLVQSGAEVKKPGSSVKVSCKASGGSFRSYGFSWVRQAPGQGLEWMGRIIPAANFADYAPKFQDRVTISADKSTSTAYMELKSLRSDDTAVYYCARDQDLSGELTALYYYHGLDVWGQGTTVTVSS
VL: EIVLTQSPGTLSLSPGQRVTLSCRASQSVSNNYIAWYQQKPGQAPRLLISGASSRATGIPDRFSGTGSGTDFTLAISRLEPEDFAVYYCQQYGDSFWTFGQGTKVEIK
B1: the Kd (as a rule, the concentration at which binding is half-saturated) in assay [1] is 17.8 pM; in assay [2], 179 pM; in assay [3], 1.07 pM; in assay [4], 1.59 pM. Besides, the koff (as a rule, a measure of how fast the partners let go of each other) was determined as 1.68e-06 s⁻¹ in assay [1], 5.36e-07 s⁻¹ in assay [2], 8.63e-08 s⁻¹ in assay [3] and 7.17e-08 s⁻¹ in assay [4]. Also, the kon (as a rule, the second-order rate constant of association) in assay [1] stood at 94400 M⁻¹ s⁻¹; in assay [2], 2990 M⁻¹ s⁻¹; in assay [3], 80500 M⁻¹ s⁻¹; in assay [4], 45100 M⁻¹ s⁻¹.
